The results in this text go back to patent publication US20250041418A1.

This assay concerns the target anti-EGFR antibody (Cetuximab). The assay can be described thus: cell-based or functional assay.

“CD16a, exogenously expressed on iNK cells”: the cytotoxic activity (ADCC activity) against A549 cells expressing EGFR, LDH assay, 4 hr co-culture in the presence of Cetuximab (fold against control iNK cells) is 2.
